From patent US20220243360A1 (ROCHE SEQUENCING SOLUTIONS, published 2022) come the findings set out here.

Test [1] has as its target T1, biotin-labeled DsbA (UniProt P0AEG4 20-208, limits assumed, biotin-labeled).
T1 sequence (looked up): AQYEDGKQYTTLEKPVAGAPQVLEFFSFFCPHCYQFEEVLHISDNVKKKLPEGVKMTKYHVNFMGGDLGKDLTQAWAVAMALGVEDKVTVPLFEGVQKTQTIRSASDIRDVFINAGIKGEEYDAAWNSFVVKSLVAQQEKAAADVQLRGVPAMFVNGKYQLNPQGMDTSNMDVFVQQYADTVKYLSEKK
The test is described as follows: peptide microarray fluorescence (Cy5), peptide on the array, biotin-DsbA in solution.

The target in test [2] is T1, biotin-labeled DsbA. The test is described as follows: SPR, Biacore X100, biotin-DsbA on streptavidin chip, peptide as analyte.
Procedure: Kinetic analysis of the interaction between the discovered peptides and DsbA was performed using a Biacore XI00. Biotin-labeled DsbA (1 uM) was immobilized on streptavidin coated chip (GE Healthcare) to a target level of 1,000 response units in HBS-P+. […] Fourteen dilutions of peptide from 5000 nM to 0.6 nM in HBS-P+were flowed over the DsbA coated chip in triplicate with a contact time of 120 seconds and a dissociation time of 600 seconds. […] All peptides were amidated on the C-terminus.
Test [3] deals with T1, biotin-labeled DsbA. Put plainly: Biacore X100 per the table title, biotin-DsbA on streptavidin chip; paragraph 121 says Biacore or ITC (Duprez 2015).

No end group written: not given here.

B1: WQYENWAITKWQCVK-NH2 (peptide)
peptide: WQYENWAITKWQCVK-NH2
In the case of B1, the “SIGNAL INTENSITY” value in the test with biotin-labeled DsbA [1] was found to be 1430. Binding in the test with biotin-labeled DsbA [2] was characterised by a dissociation constant (Kd) of 0.083 µM.

B2: SIIGMCYKKDPS-NH2 (peptide)
peptide: SIIGMCYKKDPS-NH2
On to B2, for which, in the test with biotin-labeled DsbA [1], the “SIGNAL INTENSITY” value is 1360. Moreover, in the test with biotin-labeled DsbA [2], the Kd stood at 0.188 µM.

B3: NDYQYKGQQCLDPKY-NH2 (peptide)
peptide: NDYQYKGQQCLDPKY-NH2
As to B3, the “SIGNAL INTENSITY” value in the test with biotin-labeled DsbA [1] was found to be 3620. Further, in the test with biotin-labeled DsbA [2], binding was characterised by a dissociation constant (Kd) of 0.048 µM.

B4: YVYGMCWKDYTDTDK-NH2 (peptide)
peptide: YVYGMCWKDYTDTDK-NH2
On to B4, for which the “SIGNAL INTENSITY” value with biotin-labeled DsbA [1] was determined as 2110. Moreover, the affinity with biotin-labeled DsbA [2], expressed as Kd, was 0.116 µM.

B5: SIIGQCYKKDPSQAT-NH2 (peptide)
peptide: SIIGQCYKKDPSQAT-NH2
B5 returned a Kd with biotin-labeled DsbA [2] of 0.553 µM.

B6: VIGQCLKN-NH2 (peptide)
peptide: VIGQCLKN-NH2
Consider B6, for which, in the test with biotin-labeled DsbA [1], the “SIGNAL INTENSITY” value turned out to be 588. In addition, in the test with biotin-labeled DsbA [2], the equilibrium dissociation constant (Kd) was 0.623 µM.

B7: PSPWATCDF-NH2 (peptide)
peptide: PSPWATCDF-NH2
B7: the Kd in the test with biotin-labeled DsbA [3] was found to be 2.9 µM. In the test with biotin-labeled DsbA [1], the “SIGNAL INTENSITY” value was 82.

B8: DFWHGETCKVTQFDQ-NH2 (peptide)
peptide: DFWHGETCKVTQFDQ-NH2
As to B8, in the test with biotin-labeled DsbA [1], the “SIGNAL INTENSITY” value turned out to be 1800. Moreover, the Kd with biotin-labeled DsbA [2] came out at 0.084 µM.

B9: DsbA_1_WT (peptide)
peptide: DFWHGDTCKVTQFDQ-NH2
On to B9, for which, in the test with biotin-labeled DsbA [1], the “SIGNAL INTENSITY” value was determined as 1750. The molecule also returned a Kd with biotin-labeled DsbA [2] of 0.208 µM.

B10: DFWHGEQCKVTQFDQ-NH2 (peptide)
peptide: DFWHGEQCKVTQFDQ-NH2
On to B10, for which the “SIGNAL INTENSITY” value in the test with biotin-labeled DsbA [1] turned out to be 4590. This molecule had a Kd with biotin-labeled DsbA [2] of 0.053 µM.

B11: YVYGMCWKDYTTDK-NH2 (peptide)
peptide: YVYGMCWKDYTTDK-NH2
For the molecule B11, the “SIGNAL INTENSITY” value with biotin-labeled DsbA [1] came out at 2300. Besides, in the test with biotin-labeled DsbA [2], the Kd was determined as 0.078 µM.

B12: VIVGQCLKK-NH2 (peptide)
peptide: VIVGQCLKK-NH2
For the molecule B12, the “SIGNAL INTENSITY” value in the test with biotin-labeled DsbA [1] amounted to 282. In the test with biotin-labeled DsbA [2], this molecule gave a Kd of 0.622 µM.

B13: HNWAAQCLNPDQAKL-NH2 (peptide)
peptide: HNWAAQCLNPDQAKL-NH2
For B13, the “SIGNAL INTENSITY” value with biotin-labeled DsbA [1] was 2640. In addition, the Kd in the test with biotin-labeled DsbA [2] is 0.057 µM.

B14: VILGQCLKQ-NH2 (peptide)
peptide: VILGQCLKQ-NH2
For the molecule B14, in the test with biotin-labeled DsbA [1], the “SIGNAL INTENSITY” value was determined as 965. In addition, the dissociation constant Kd in the test with biotin-labeled DsbA [2] stood at 0.517 µM.

B15: HNWAAQCLKDQAKL-NH2 (peptide)
peptide: HNWAAQCLKDQAKL-NH2
As to B15, the “SIGNAL INTENSITY” value with biotin-labeled DsbA [1] was 1760. The molecule also came in with a Kd with biotin-labeled DsbA [2] of 0.088 µM.

By Kd is commonly meant the equilibrium constant for the complex coming apart.
